Publication PMC8484898 (Bioactive Materials, 2021)

Molecular target: T1, human receptor activator of nuclear factor-κB (RANK) (human, UniProt Q9Y6Q6 30-212)
T1 sequence (looked up): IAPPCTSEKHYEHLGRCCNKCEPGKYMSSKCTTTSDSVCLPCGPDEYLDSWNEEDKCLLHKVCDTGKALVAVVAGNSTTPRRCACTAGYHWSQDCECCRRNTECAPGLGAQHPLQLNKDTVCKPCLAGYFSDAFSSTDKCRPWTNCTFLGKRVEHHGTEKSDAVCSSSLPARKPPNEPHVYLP
Assay: SPR

B1: human receptor activator of nuclear factor-κB ligand (RANKL) (ligand, UniProt O14788 140-317, looked up)
chain: IRAEKAMVDGSWLDLAKRSKLEAQPFAHLTINATDIPSGSHKVSLSSWYHDRGWAKISNMTFSNGKLIVNQDGFYYLYANICFRHHETSGDLATEYLQLMVYVTKTSIKIPSSHTLMKGGSTKYWSGNSEFHFYSINVGGFFKLRSGEEISIEVSNPSLLDPDQDATYFGAFKVRDID
- binding result: binds
